Test results taken from PMC4519979 (Biochemistry, 2015).

What was measured:
[1] = target: the molecule itself; assay: native gel or EMSA; BN-PAGE with Western blot for the His tag; membranes (30 ug protein) solubilised in PBS pH 7.4 with 1% DDM, 2.8 M urea, 1 mM EDTA, 30 min, room temperature; heptamer to monomers
[2] = target: the molecule itself; assay: native gel or EMSA; BN-PAGE after the fluorescence measurements of purified MscS reconstituted into DOPC bilayers (molar ratio 1:100; 40 mM HEPES pH 7.2, 100 mM KCl, 1 mM EGTA)
[3] = target: the molecule itself; assay: SEC; HiPrep Superdex 200 16/600 after Ni-NTA; 0.03% DDM, 50 mM sodium phosphate pH 7.5, 150 mM NaCl; ratio of heptamers to monomers
[4] = target: the molecule itself; assay: FRET or BRET; homo-FRET between Trp residues of different subunits read by steady-state fluorescence anisotropy; heptameric and dissociated fractions from SEC, DDM-solubilised; excitation 295 nm, emission 340-360 nm

Protein	stoichiometry N [2]	binding result [3]	also measured
wild-type (WT) MscS (complex, E. coli) MEDLNVVDSINGAGSWLVANQALLLSYAVNIVAALAIIIVGLIIARMISNAVNRLMISRKIDATVADFLSALVRYGIIAFTLIAALGRVGVQTASVIAVLGAAGLAVGLALQGSLSNLAAGVLLVMFRPFRAGEYVDLGGVAGTVLSVQIFSTTMRTADGKIIVIPNGKIIAGNIINFSREPVRRNEFIIGVAYDSDIDQVKQILTNIIQSEDRILKDREMTVRLNELGASSINFVVRVWSNSGDLQNVYWDVLERIKREFDAAGISFPYPQMDVNFKRVKEDKAA			stoichiometry N [1]: 7
MscS YFF T93W (complex, E. coli) MEDLNVVDSINGAGSYLVANQALLLSYAVNIVAALAIIIVGLIIARMISNAVNRLMISRKIDATVADFLSALVRYGIIAFTLIAALGRVGVQWASVIAVLGAAGLAVGLALQGSLSNLAAGVLLVMFRPFRAGEYVDLGGVAGTVLSVQIFSTTMRTADGKIIVIPNGKIIAGNIINFSREPVRRNEFIIGVAYDSDIDQVKQILTNIIQSEDRILKDREMTVRLNELGASSINFVVRVFSNSGDLQNVYFDVLERIKREFDAAGISFPYPQMDVNFKRVKEDKAA	7		
MscS YFF A98W (complex, E. coli, UniProt P0C0S1 1-286, looked up) MEDLNVVDSINGAGSYLVANQALLLSYAVNIVAALAIIIVGLIIARMISNAVNRLMISRKIDATVADFLSALVRYGIIAFTLIAALGRVGVQTASVIWVLGAAGLAVGLALQGSLSNLAAGVLLVMFRPFRAGEYVDLGGVAGTVLSVQIFSTTMRTADGKIIVIPNGKIIAGNIINFSREPVRRNEFIIGVAYDSDIDQVKQILTNIIQSEDRILKDREMTVRLNELGASSINFVVRVFSNSGDLQNVYFDVLERIKREFDAAGISFPYPQMDVNFKRVKEDKAA		binds	
MscS YFF L105W (complex, E. coli, UniProt P0C0S1 1-286, looked up) MEDLNVVDSINGAGSYLVANQALLLSYAVNIVAALAIIIVGLIIARMISNAVNRLMISRKIDATVADFLSALVRYGIIAFTLIAALGRVGVQTASVIAVLGAAGWAVGLALQGSLSNLAAGVLLVMFRPFRAGEYVDLGGVAGTVLSVQIFSTTMRTADGKIIVIPNGKIIAGNIINFSREPVRRNEFIIGVAYDSDIDQVKQILTNIIQSEDRILKDREMTVRLNELGASSINFVVRVFSNSGDLQNVYFDVLERIKREFDAAGISFPYPQMDVNFKRVKEDKAA	7		
MscS YFF L109W (complex, E. coli, UniProt P0C0S1 1-286, looked up) MEDLNVVDSINGAGSYLVANQALLLSYAVNIVAALAIIIVGLIIARMISNAVNRLMISRKIDATVADFLSALVRYGIIAFTLIAALGRVGVQTASVIAVLGAAGLAVGWALQGSLSNLAAGVLLVMFRPFRAGEYVDLGGVAGTVLSVQIFSTTMRTADGKIIVIPNGKIIAGNIINFSREPVRRNEFIIGVAYDSDIDQVKQILTNIIQSEDRILKDREMTVRLNELGASSINFVVRVFSNSGDLQNVYFDVLERIKREFDAAGISFPYPQMDVNFKRVKEDKAA			binding result [4]: binds
MscS YFF G90W (complex, E. coli) MEDLNVVDSINGAGSYLVANQALLLSYAVNIVAALAIIIVGLIIARMISNAVNRLMISRKIDATVADFLSALVRYGIIAFTLIAALGRVWVQTASVIAVLGAAGLAVGLALQGSLSNLAAGVLLVMFRPFRAGEYVDLGGVAGTVLSVQIFSTTMRTADGKIIVIPNGKIIAGNIINFSREPVRRNEFIIGVAYDSDIDQVKQILTNIIQSEDRILKDREMTVRLNELGASSINFVVRVFSNSGDLQNVYFDVLERIKREFDAAGISFPYPQMDVNFKRVKEDKAA		binds	
MscS YFF A103W (complex, E. coli, UniProt P0C0S1 1-286, looked up) MEDLNVVDSINGAGSYLVANQALLLSYAVNIVAALAIIIVGLIIARMISNAVNRLMISRKIDATVADFLSALVRYGIIAFTLIAALGRVGVQTASVIAVLGAWGLAVGLALQGSLSNLAAGVLLVMFRPFRAGEYVDLGGVAGTVLSVQIFSTTMRTADGKIIVIPNGKIIAGNIINFSREPVRRNEFIIGVAYDSDIDQVKQILTNIIQSEDRILKDREMTVRLNELGASSINFVVRVFSNSGDLQNVYFDVLERIKREFDAAGISFPYPQMDVNFKRVKEDKAA	7		
MscS YFF (complex, E. coli) MEDLNVVDSINGAGSYLVANQALLLSYAVNIVAALAIIIVGLIIARMISNAVNRLMISRKIDATVADFLSALVRYGIIAFTLIAALGRVGVQTASVIAVLGAAGLAVGLALQGSLSNLAAGVLLVMFRPFRAGEYVDLGGVAGTVLSVQIFSTTMRTADGKIIVIPNGKIIAGNIINFSREPVRRNEFIIGVAYDSDIDQVKQILTNIIQSEDRILKDREMTVRLNELGASSINFVVRVFSNSGDLQNVYFDVLERIKREFDAAGISFPYPQMDVNFKRVKEDKAA			stoichiometry N [1]: 7
MscS YFF R88W (complex, E. coli, UniProt P0C0S1 1-286, looked up) MEDLNVVDSINGAGSYLVANQALLLSYAVNIVAALAIIIVGLIIARMISNAVNRLMISRKIDATVADFLSALVRYGIIAFTLIAALGWVGVQTASVIAVLGAAGLAVGLALQGSLSNLAAGVLLVMFRPFRAGEYVDLGGVAGTVLSVQIFSTTMRTADGKIIVIPNGKIIAGNIINFSREPVRRNEFIIGVAYDSDIDQVKQILTNIIQSEDRILKDREMTVRLNELGASSINFVVRVFSNSGDLQNVYFDVLERIKREFDAAGISFPYPQMDVNFKRVKEDKAA		binds	
MscS YFF I97W (complex, E. coli, UniProt P0C0S1 1-286, looked up) MEDLNVVDSINGAGSYLVANQALLLSYAVNIVAALAIIIVGLIIARMISNAVNRLMISRKIDATVADFLSALVRYGIIAFTLIAALGRVGVQTASVWAVLGAAGLAVGLALQGSLSNLAAGVLLVMFRPFRAGEYVDLGGVAGTVLSVQIFSTTMRTADGKIIVIPNGKIIAGNIINFSREPVRRNEFIIGVAYDSDIDQVKQILTNIIQSEDRILKDREMTVRLNELGASSINFVVRVFSNSGDLQNVYFDVLERIKREFDAAGISFPYPQMDVNFKRVKEDKAA		binds	
MscS YFF G113W (complex, E. coli, UniProt P0C0S1 1-286, looked up) MEDLNVVDSINGAGSYLVANQALLLSYAVNIVAALAIIIVGLIIARMISNAVNRLMISRKIDATVADFLSALVRYGIIAFTLIAALGRVGVQTASVIAVLGAAGLAVGLALQWSLSNLAAGVLLVMFRPFRAGEYVDLGGVAGTVLSVQIFSTTMRTADGKIIVIPNGKIIAGNIINFSREPVRRNEFIIGVAYDSDIDQVKQILTNIIQSEDRILKDREMTVRLNELGASSINFVVRVFSNSGDLQNVYFDVLERIKREFDAAGISFPYPQMDVNFKRVKEDKAA	7		
MscS YFF G101W (complex, E. coli, UniProt P0C0S1 1-286, looked up) MEDLNVVDSINGAGSYLVANQALLLSYAVNIVAALAIIIVGLIIARMISNAVNRLMISRKIDATVADFLSALVRYGIIAFTLIAALGRVGVQTASVIAVLWAAGLAVGLALQGSLSNLAAGVLLVMFRPFRAGEYVDLGGVAGTVLSVQIFSTTMRTADGKIIVIPNGKIIAGNIINFSREPVRRNEFIIGVAYDSDIDQVKQILTNIIQSEDRILKDREMTVRLNELGASSINFVVRVFSNSGDLQNVYFDVLERIKREFDAAGISFPYPQMDVNFKRVKEDKAA	7		
MscS YFF A94W (complex, E. coli) MEDLNVVDSINGAGSYLVANQALLLSYAVNIVAALAIIIVGLIIARMISNAVNRLMISRKIDATVADFLSALVRYGIIAFTLIAALGRVGVQTWSVIAVLGAAGLAVGLALQGSLSNLAAGVLLVMFRPFRAGEYVDLGGVAGTVLSVQIFSTTMRTADGKIIVIPNGKIIAGNIINFSREPVRRNEFIIGVAYDSDIDQVKQILTNIIQSEDRILKDREMTVRLNELGASSINFVVRVFSNSGDLQNVYFDVLERIKREFDAAGISFPYPQMDVNFKRVKEDKAA	7		
